Test results taken from patent publication US20260258115A1 (MAPP BIOPHARMACEUTICAL, published 2026).

B1: ADI-43645 (antibody, V domains shown)
VH: QVQLVQSGAEVKKPGSSVKVSCKASGGTFSSYAISWVRQAPGQGLEWMGGIIPIFGTANYAQKFQGRVTITADESTSTAYMELSSLRSEDTAVYYCARGWRGGGMTGSYYYYGMDVWGQGTTVTVSS
VL: DIQVTQTPSTLSASVGDRVTITCRASQSISSWLAWYQQKPGKAPKLLIYKASSLESGVPSRFSGSGSGTEFTLTISSLQPDDFATYYCQQHRGTFGQGTKVDIK
notes: also called Ab 826; Antibody Number 826
B2: ADI-41517 (antibody, V domains shown)
VH: QVQLVQSGGGLVQPGGSLRLACAASGFTLSGYAMNWVRQAPGKGLEWVSSISGSGGSTYYADSVKGRFTTSRDNSKNTVFLHMNSLRAEDTAIYYCATVPWETGPFDHWGQGTLVTVSS
VL: QSVLTQPPSVSGAPGQRVTISCTGSSSNIGAGYAVHWYQQLPGTAPKLLIHGTTNRPSGVPDRFSGSKSGTSASLAITGLQAEDEADYYCQSYDSRLSGYVFGTGTKLTVL
B3: ADI-41457 (antibody, V domains shown)
VH: EVQLVESGGGLVRPGGSLRVSCAASGFTFIRYDMHWVRQAPGKGLEWVSGIGTAGDTYYAASVQGRFTISRENAKNSLYLQMSNLRPGDTAVYYCAGSMAATGIDQWGQGTLVTVSS
VL: EIVMTQSPLTLPVTPGEPASISCRSSQSLLHSNGFTYLDWFLQKPGQSPQLLIFLGSNRASGVPDRFSGSGSGTDFTLKISRVEAEDVGIYYCMQALQTPYTFGQGTKVEIK
notes: also called Ab 741; Antibody Number 741
B4: ADI-43644 (antibody, V domains shown)
VH: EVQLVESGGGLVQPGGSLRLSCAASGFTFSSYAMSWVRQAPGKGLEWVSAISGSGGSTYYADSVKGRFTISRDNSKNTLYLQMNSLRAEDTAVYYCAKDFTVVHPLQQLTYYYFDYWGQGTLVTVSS
VL: DIVLTQSPATLSLSPGERATLSCRASQSVSSYLAWYQQKPGQAPRLLIYDASNRATGIPARFSGSGSGTDFTLTISSLEPEDFAVYYCQQRSNWPPGFTFGGGTKVEIK
B5: ADI-41501 (antibody, V domains shown)
VH: QVQLVQSGAEVKKPGSSVKVSCKASGGIFSDFAISWVRQAPGQGLEWMGGIITIIGTPEYAQKFQGRVRITADESTTTVFMELSRLTSEDTAVYYCARDSRYGSGWYWDHWGQGTLVTVSS
VL: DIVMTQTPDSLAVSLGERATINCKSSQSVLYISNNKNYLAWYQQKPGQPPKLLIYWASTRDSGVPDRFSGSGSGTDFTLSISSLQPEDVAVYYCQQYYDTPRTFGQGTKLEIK
notes: also called Ab 780; Antibody Number 780
B6: ADI-41489 (antibody, V domains shown)
VH: EVQLVESGGGVVQPGRSLRLSCAASGFNFHNYAFHWVRQAPGKGLDWVAVTSYDGSSAFYADSVKGRFTISRDNSKKILYLQMTSLRAEDTALYYCARGSSSWSGDYFDYWGQGILVTVSS
VL: DIVMTQSPVTLSVSPGERATLSCRASQSVGSNLAWYQQKHGQTPRLLIYDASTRATSIPARFSGSGSGTEFTLTISSLQSEDFAVYYCQQYNKWPSYTFGQGTKVEIK
notes: also called Ab 770; Antibody Number 770
B7: ADI-41516 (antibody, V domains shown)
VH: EVQLLESGPRLVKPSETLSLTCIVSGGFISYDYWSWIRQPAGKGLEWIGRIYAGGIPKYNPSLKSRVTMSLDMSNNQFSLRLKSVTAADSAVYYCARAEPCSGDCFLGENPFDSWGQGTLVTVSS
VL: QSVLTQPPSASGTPGQRVTISCSGSSSSIGSNYVYWYQQLPGTAPKLLIHKDNERPSGVPDRFSGSKSGTSASLAISGLRSEDEGDYSCAAWDDSLSGWVFGGGTKLTVL
B8: ADI-41523 (antibody, V domains shown)
VH: QVQLVQSGAEVKKPGESLRISCKGSGDTFSNYWIGWVRQMPGKGLEWMGIIYPGDSDTRYSPSFQGQVTFSADKSISTAYLQWSSLKASDTAMYYCVRQVGGVVVTDTDNYYYGMDVWGQGTTVTVSS
VL: DIRLTQSPSSLSASVGDRVTITCRASQSIRSYLNWYQQKPGKAPKLLIYSASSLQSGVPSRFSGSGSGTDFTLTISSLQPEDFATYYCQQSHSTPLTFGPGTKVDIK
B9: ADI-41524 (antibody, V domains shown)
VH: EVQLVESGGGLVQPGRSLRLSCTGSGFTFGDYAISWFRQAPGKGLEWVGFIRSKPYGGTTEYAASVKGTFTISRDDSKSIAYLQMNSLKTGDTAVYFCTRGIWGITMIVPWSDPWGQGTLVTVSS
VL: DIVMTQTPLSLPVTPGEPASISCRSSQSLLHSNGFNYLAWYLQKPGQSPQLLIYLNSNRASGVPDRFSGSGSGTDFTLKISRVEAEDVGVYYCMQALQTPLTFGPGTKLEIK
B10: ADI-43646 (antibody, V domains shown)
VH: EMQLMQSGGVVVQPGGSLRLSCAASGFTFDDYAMHWVRQAPGKGLEWVSLISWDGGSTYYADSVKGRFTISRDNSKNSLYLQMNSLRAEDTALYYCAKDFDPLVVPAAMCFDYWGQGTLVTVSS
VL: QSVLIQPASVSGSPGQSITISCTGTSSDVGGYNYVSWYQQHPGKAPKLMIYDVSNRPSGVSNRFSGSKSGNTASLTISGLQAEDEADYYCSSYTSSSTLYVFGTGTKLTVL
B11: ADI-41491 (antibody, V domains shown)
VH: EVQLLESGGGLVQPGGSLRLSCAASGFTFSSYSMNWVRQAPGKGLEWVSYMSSDRSAIYYSDSVKDRFTISRDNAKNSLYLQMHSLRAEDTAVYYCARRYCSSTSCYRGLGYYYGMDVWGQGTTVTVSS
VL: SYELTQPPSVSVAPGQTARITCGGSNIGNKDVHWYQQKPGQAPVLVVYDDSDRPSGIPERFAGSNSGNTATLTISRVEAGDEADYYCQVWHSAGDHVVFGGGTKLTVL
B12: ADI-41521 (antibody, V domains shown)
VH: EVQLVESGGGLVQPGRSLRLSCAASGFTFDDFAMDWVRQVPGKGLEWVSGISWNGVSKDYAGSVKGRFTISRDNAKNSLYLQMNSLRAEDTALYFCAKARRDVYNWGDAFDIWGQGTMVTVSS
VL: DIRLTQSPGTLSLSPGERATLSCRASQPLNSNYLAWYRQKPGQAPRLLIFDASSRATGVPDRISGSGSGTDFTLTVSRLEPEDIAVYYCQQYASSPWTFGLGTKVEIK
B13: ADI-41476 (antibody, V domains shown)
VH: EVQLLESGGGLVQPGGSLRLSCATSGFRFTRYWMHWVRQAPGKGLEWVARINFDGTTTNYADSVKGRFTVSRDNAKNTLYLQINSLRAEDTAVYFCARDQTFLEWLPFESWGQGTLVTVSS
VL: QTVVTQEPSFSVSPGGTVTLTCGLTSGSVSTSYYPSWYQQTPGQAPRTLIYNTKTRFSGVPDRFSGSILGNKAALTITGAQADDESDYYCVLYMSGGMVFGGGTKLTVL
B14: ADI-41302 (antibody, V domains shown)
VH: QVQLVESGGGVVQPGRSLRLSCAASGFTFSSYAMQWVRQAPGKGLEWVAVMTNDGDDKYYADSVRGRFTISRDNSKNTLYLQMNNLRPEDTAVYYCARDLFEWWELLGYCYAMDVWGQGTTVTVSS
VL: QSVLTQPPSASGSPGQSVTISCTGTSSDVGAYNYVSWYQQHPGKAPKLIIYEVYKRPSGVPDRFFGSKSGNTASLTVSGLQAEDEADYYCSSYAGSNTLGVFGGGTKVTVL
B15: ADI-21090 (antibody, V domains shown)
VH: EVQLLESGGGLVKPGGSLRLSCAASGFTSGFTFSDFYMSWIRLTPGKGLEWISYISTHSTSTNYADSVRGRFIISRDDARNSLFLQMNSLRAEDTAVYYCAGYYYGSGSYFFDHWGQGTLVTVSS
VL: ETTLTQSPATLSVSPGERATLSCRASQSVSSNVAWYQQKPGQAPRLLIYSASSRDTGIPVRFSGSGSGTEFTLSISSLQSEDFAVYYCQQYSDWPTFGQGTKVEIK
B16: ADI-21087 (antibody, V domains shown)
VH: EVQLVESGGGLVQPGGSLRLSCAASGFTFSGYEMNWVRQAPGKGLEWLSYISSSGGIIYYADSVKGRFTISRDNARNSLFLQMNSLRAEDTAVYSCARARLLDGFDIWGQGTMVTVSS
VL: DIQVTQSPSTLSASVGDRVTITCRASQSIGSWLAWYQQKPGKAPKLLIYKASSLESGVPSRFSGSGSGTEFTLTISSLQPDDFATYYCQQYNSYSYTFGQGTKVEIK
B17: ADI-21071 (antibody, V domains shown)
VH: EVQLVESGGGVVQPGKSLRLSCAVSGFTFSDHDMHWVRQAPGKGLEWVAAIWSDRTTKYYGDFVKGRFTISRDNSKNTLYLQMNSLRAEDTAVYYCARGQIYKSGGYYLVHLDHWGQGTLVTVSS
VL: DIQVTQSPSSLSASVGDRVTITCRASQSIASYLNWYQQKPGKAPNLLIYAASNLQSEVPSRFSGSGSGTDFTLTISGLQPEDFATYYCQQSYNIRLLTFGGGTKVEIK

Target: RSV postfusion F (postF), F ΔFP (Respiratory Syncytial Virus, UniProt P03420 26-513)
Test: BLI, IgG on anti-human IgG sensor

Binder | binding result
B1 | no binding
B2 | no binding
B3 | no binding
B4 | no binding
B5 | no binding
B6 | no binding
B7 | no binding
B8 | no binding
B9 | no binding
B10 | no binding
B11 | no binding
B12 | no binding
B13 | no binding

Target: RSV prefusion F (preF), DS-Cav1 (Respiratory Syncytial Virus, UniProt P03420 26-513)
Test: BLI, IgG on anti-human IgG sensor, 100 nM antigen, 1:1 fit

Binder | Kd [nM]
B1 | 8.7
B2 | 0.501
B3 | 3.33
B4 | 29.3
B5 | 3.21
B6 | 88
B7 | 0.414
B8 | 2.91
B9 | 3.18
B10 | 5.34
B11 | 0.439
B12 | 1.68
B13 | 3.86

Target: RSV F on RSV subtype A virus (RSV-A2) (Respiratory Syncytial Virus, subtype A, …, UniProt P03420 26-574)
Test: cell-based or functional assay

Binder | Neutralization - RSV A2 IC50 (pM) | neut IC50 (ug/ml) subtype A (wright) [µg/mL]
B14 | 133 | 0.006

Target: RSV prefusion F (preF), DS-Cav1 stabilized trimer, subtype A (Respiratory Syncytial Virus, subtype A, UniProt P03420 26-513)
Test: BLI, apparent IgG KD (Table 9A)

Binder | Kd [nM]
B14 | 0.65

Target: RSV F on RSV-A2 virus (Respiratory Syncytial Virus (RSV-A2), UniProt P03420 26-574)
Test: cell-based or functional assay

Binder | Neutralization IC50 (RSV subtype A) [µg/mL]
B1 | > 25
B2 | 0.02
B3 | > 25
B4 | > 25
B5 | > 25
B6 | > 25
B7 | 0.08
B8 | > 25
B9 | > 25
B10 | > 25
B11 | > 25
B12 | > 25
B13 | > 25

Target: T1, RSV postfusion F, subtype B (postF trimer) (Respiratory syncytial virus subtype B, UniProt P13843 26-513)
T1 construct: also called Postfusion subtype B
Test: BLI, IgG apparent affinity

Binder | Kd [nM]
B15 | 0.175
B16 | 0.476
B17 | 1.38

Target: RSV prefusion F, subtype A (preF, DS-Cav1 trimer) (Respiratory syncytial virus subtype A, UniProt P03420 26-513)
Test: BLI, IgG apparent affinity

Binder | Kd [nM] | binding result
B15 | 1.17 | 
B16 |  | no binding
B17 | 1.17 | 

Target: T2, RSV postfusion F, subtype A (postF, F ΔFP trimer) (Respiratory syncytial virus subtype A, UniProt P03420 26-513)
T2 construct: also called Postfusion subtype A
Test: BLI, IgG apparent affinity

Binder | Kd [nM]
B15 | 0.176
B16 | 0.545
B17 | 0.216

Target: RSV postfusion F (postF), F ΔFP trimer, subtype A (Respiratory Syncytial Virus, subtype A, UniProt P03420 26-513)
Test: BLI, IgG (Table 9A)

Binder | binding result
B14 | no binding
